According to article PMC6009650:

How the values were obtained:
[1] = molecular target: E. coli RNAP core enzyme carrying a hexahistidine-tagged β’ subunit (E. coli) (UniProt P0A8T7)
[2] = molecular target: E. coli RNAP core enzyme carrying a hexahistidine-tagged β’ subunit (E. coli) (UniProt P0A8T7); remark: listed apart in the source

Chain of UniProt P0A8T7 (P0A8T7 whole entry, looked up): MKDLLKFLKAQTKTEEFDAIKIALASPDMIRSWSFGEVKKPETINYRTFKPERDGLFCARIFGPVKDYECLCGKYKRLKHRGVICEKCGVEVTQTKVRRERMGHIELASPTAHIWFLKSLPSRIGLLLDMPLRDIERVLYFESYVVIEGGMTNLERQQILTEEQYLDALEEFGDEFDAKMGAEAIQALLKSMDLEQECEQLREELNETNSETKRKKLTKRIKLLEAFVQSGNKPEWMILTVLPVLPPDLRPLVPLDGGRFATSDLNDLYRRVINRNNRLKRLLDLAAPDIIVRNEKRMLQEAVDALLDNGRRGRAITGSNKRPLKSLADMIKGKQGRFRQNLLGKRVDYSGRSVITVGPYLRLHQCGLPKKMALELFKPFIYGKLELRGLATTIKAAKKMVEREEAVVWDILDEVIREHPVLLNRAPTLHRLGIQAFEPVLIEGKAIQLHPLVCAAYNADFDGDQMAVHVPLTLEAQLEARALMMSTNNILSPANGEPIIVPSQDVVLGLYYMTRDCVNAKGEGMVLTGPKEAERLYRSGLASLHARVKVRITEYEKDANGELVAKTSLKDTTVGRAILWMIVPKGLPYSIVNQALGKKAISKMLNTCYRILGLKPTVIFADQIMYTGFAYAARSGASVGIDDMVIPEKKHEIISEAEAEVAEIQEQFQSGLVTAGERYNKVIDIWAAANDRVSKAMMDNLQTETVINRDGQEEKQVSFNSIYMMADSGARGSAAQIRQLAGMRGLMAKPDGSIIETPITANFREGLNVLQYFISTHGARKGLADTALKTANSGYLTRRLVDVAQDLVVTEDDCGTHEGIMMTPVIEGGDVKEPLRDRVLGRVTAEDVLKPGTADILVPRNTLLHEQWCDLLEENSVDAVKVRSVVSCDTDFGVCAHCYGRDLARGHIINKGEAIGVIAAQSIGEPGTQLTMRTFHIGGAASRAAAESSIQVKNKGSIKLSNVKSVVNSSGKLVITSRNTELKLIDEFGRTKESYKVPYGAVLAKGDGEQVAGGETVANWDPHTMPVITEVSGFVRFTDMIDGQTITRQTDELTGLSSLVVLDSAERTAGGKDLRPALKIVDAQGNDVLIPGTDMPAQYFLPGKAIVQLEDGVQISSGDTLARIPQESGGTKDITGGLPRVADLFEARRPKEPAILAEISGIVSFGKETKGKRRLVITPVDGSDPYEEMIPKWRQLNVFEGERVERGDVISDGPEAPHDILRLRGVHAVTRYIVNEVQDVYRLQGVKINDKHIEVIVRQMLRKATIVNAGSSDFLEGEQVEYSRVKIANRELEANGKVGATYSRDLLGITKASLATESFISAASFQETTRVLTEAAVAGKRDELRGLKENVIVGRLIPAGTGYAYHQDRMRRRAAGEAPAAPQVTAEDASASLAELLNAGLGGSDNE

B1: Nun protein of HK022 phage (natural protein)
chain: VKKTIYVNPDSGQNRKVSDRGLTSRDRRRIARWEKRIAYALKNGVTPGFNAIDDGPEYKINEDPMDKVDKALATPFPRDVEKIEDEKYEDVMHRVVNHAHQRNPNKKWS
- apparent Vmax of pyrophosphorolysis of TEC U10 with 1 μM Nun (15.7 min^-1 without Nun); [PPi] 10 μM to 2.5 mM [1]: 160 min⁻¹
- apparent pyrophosphorolysis rate of TEC U10 after pre-incubation with 1 μM Nun (0.21 s^-1 without Nun); 2.5 mM PPi, 5 mM MgCl2 [2]: 2.4 s⁻¹
